Laboratory results taken from US20240336663.

Experiments:
[1] = tested on: ZFR11 (Zinc Finger 11-HP1a-KRAB) (synthetic); test: cell_activity; settings: N2A cells, transfection, qPCR; indirect (repression); text labels ZFR11 as SEQ 10 but the listing gives Zinc Finger 11-HP1a-KRAB as SEQ 11
[2] = tested on: ZFR3 (Zinc Finger 3-HP1a-KRAB) (synthetic); test: cell_activity; settings: N2A cells, transfection, qPCR; indirect (repression); text labels ZFR3 as SEQ 11 but the listing gives Zinc Finger 3-HP1a-KRAB as SEQ 10
Chain of ZFR3 (Zinc Finger 3-HP1a-KRAB) (synthetic) (chain, as listed by the source): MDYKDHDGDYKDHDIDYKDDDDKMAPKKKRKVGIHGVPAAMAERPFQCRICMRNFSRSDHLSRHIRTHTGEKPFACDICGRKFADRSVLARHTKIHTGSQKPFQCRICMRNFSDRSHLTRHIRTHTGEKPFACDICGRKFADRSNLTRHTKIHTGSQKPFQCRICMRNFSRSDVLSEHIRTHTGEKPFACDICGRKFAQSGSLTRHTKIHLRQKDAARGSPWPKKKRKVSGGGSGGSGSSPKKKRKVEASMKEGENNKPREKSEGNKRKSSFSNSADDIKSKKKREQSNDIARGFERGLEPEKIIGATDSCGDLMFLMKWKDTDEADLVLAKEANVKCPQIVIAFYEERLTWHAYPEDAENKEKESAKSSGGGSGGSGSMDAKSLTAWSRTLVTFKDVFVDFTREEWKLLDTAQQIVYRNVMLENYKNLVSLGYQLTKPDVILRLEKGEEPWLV

Chain of ZFR11 (Zinc Finger 11-HP1a-KRAB) (synthetic) (chain, as listed by the source): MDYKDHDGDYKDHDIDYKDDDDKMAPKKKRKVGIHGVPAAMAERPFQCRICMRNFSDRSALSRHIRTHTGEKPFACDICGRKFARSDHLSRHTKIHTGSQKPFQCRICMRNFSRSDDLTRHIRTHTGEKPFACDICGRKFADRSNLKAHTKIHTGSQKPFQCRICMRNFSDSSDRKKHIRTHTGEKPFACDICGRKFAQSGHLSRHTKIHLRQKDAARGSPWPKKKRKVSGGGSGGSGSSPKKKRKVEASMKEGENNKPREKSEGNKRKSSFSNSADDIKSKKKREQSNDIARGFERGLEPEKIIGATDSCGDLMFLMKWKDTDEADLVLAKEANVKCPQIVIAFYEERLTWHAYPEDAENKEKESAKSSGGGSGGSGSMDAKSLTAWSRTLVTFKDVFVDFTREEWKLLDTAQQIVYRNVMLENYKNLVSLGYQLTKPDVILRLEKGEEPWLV

Work on “mouse Myd88 promoter target region (20 nt target of each ZF not individually printed)” yielded a relative Myd88 expression (fold Myd88 expression) [1] of 0.21 and a relative Myd88 expression (fold Myd88 expression) [2] of 0.22.
